Laboratory results published in US20050267024A1 (published 2005).

T1: VEGFR-3-Fc (human, UniProt P35916 25-328)
T1 construct: domain: first three Ig domains; used as conditioned supernatant of 293T cells; also called VEGFR-3-Fc fusion protein; not shown: Fc fragment of the pIg vector
T1 sequence (looked up): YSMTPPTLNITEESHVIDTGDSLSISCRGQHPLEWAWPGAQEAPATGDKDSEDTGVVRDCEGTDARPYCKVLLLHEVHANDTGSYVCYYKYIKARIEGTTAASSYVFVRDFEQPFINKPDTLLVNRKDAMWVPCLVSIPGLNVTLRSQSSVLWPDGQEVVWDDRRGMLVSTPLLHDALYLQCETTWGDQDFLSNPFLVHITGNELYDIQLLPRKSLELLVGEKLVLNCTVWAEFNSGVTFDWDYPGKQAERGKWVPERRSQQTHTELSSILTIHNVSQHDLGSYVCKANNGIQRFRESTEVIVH


Tests used:
Test in all cases: receptor-Fc IP
VEGFR-2-Fc = biological target: T2, VEGFR-2-Fc (human, UniProt P35968 20-322)
T2 construct: domain: first 3 Ig domains; used as conditioned supernatant of 293T cells; also called VEGFR-2-Fc fusion protein; not shown: Fc fragment of the pIg vector
Method: (§1) The binding assay procedure was identical to the immunoprecipitation using pentahistidine antibody described in Example 2, apart from the composition of the immunoprecipitation (IP) mixes. The IP mixes used for the receptor binding analysis were as follows: For VEGFR-1 binding assays, the IP mix was phosphate buffered saline (PBS) containing 1.5% BSA, 0.06% Tween 20, 3 μg/ml heparin and 400 ng/ml VEGFR-1-Fc fusion protein (100 μl of this IP mix was added to 200 μl of sample supernatant); for VEGFR-2 binding assays, the IP mix was 82% conditioned cell supernatant from 293T cells transiently expressing VEGFR-2-Fc fusion protein in mixture with 18% of a PBS solution that contained 5% BSA, 0.2% Tween 20, and 10 μg/ml heparin (250 μl of IP mix was added to 200 μl of sample supernatant); and for VEGFR-3 binding assays, the IP mix was 82% conditioned cell supernatant from 293T cells transiently expressing VEGFR-3-Fc fusion protein, 18% of PBS containing 5% BSA, 0.2% Tween 20, and 10 μg/ml heparin (250 μl of IP mix was added to 200 μl of sample supernatant).

VEGFR-3-Fc = biological target: T1, VEGFR-3-Fc
Method: as §1

VEGFR-1-Fc = biological target: T3, VEGFR-1-Fc (human, UniProt P17948 27-331)
T3 construct: domain: first three Ig domains; expressed in Drosophila S2 cells, purified on Protein A sepharose; also called VEGFR-1-Fc fusion protein; not shown: Fc fragment from the Signal-pIgPlus vector
Method: as §1

T3 sequence (P17948 27-331): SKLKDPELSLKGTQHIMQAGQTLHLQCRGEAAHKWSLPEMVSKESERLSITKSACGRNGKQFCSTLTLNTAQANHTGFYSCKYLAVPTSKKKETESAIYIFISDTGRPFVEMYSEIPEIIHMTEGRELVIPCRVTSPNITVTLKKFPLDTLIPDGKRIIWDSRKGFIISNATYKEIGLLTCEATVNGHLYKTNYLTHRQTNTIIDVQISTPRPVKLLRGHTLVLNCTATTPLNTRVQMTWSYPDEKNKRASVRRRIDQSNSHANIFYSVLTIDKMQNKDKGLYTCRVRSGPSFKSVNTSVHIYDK
T2 sequence (P35968 20-322): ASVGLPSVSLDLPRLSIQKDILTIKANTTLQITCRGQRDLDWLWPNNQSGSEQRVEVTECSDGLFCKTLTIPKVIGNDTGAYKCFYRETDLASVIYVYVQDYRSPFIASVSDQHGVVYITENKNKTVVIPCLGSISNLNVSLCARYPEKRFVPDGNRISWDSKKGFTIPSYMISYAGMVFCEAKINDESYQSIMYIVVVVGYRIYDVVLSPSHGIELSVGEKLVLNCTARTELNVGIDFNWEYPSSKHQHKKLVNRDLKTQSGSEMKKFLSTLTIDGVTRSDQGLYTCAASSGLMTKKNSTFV

Row | binding result (VEGFR-2-Fc) | binding result (VEGFR-3-Fc) | binding result (VEGFR-1-Fc) | Binder
1 | no binding | no binding | no binding | 72-7 (ligand) GQNHHEVVKSIDNEWRKTQCMPREVCIDVGKEFGVATNTFFKPPCVSVYRCGGCCNSEGLQCVPTEESNITMQIMRIKPHQGQHIGEMSFANHTSCRCMSKLD
2 | no binding | binds | binds | 12-13 (ligand) GQNHHEVVKFMDVYQRSYCHPIETLVDIFQEFGVATNTFFKPPCVSVYRCGGCCNDEGLECVPTEESNITMQIMRITVPLSQGPKPVTISFANHTSCRCMSKLN
3 | no binding | no binding | no binding | 22-1 (ligand) AHYNTEILKSIDNEWRKTQCMPREVCIDVGKEFGVATNTFFKPPCVSVYRCGGCCNDEGLECVPTEESNITMQIMRIKPHQGQHIGEMSFLQHNKCECRPKKD
4 | no binding | no binding | binds | 12-5 (ligand) GQNHHEVVKFMDVYQRSYCHPIETLVDIFQEFGVATNTFFKPPCVSVYRCGGCCNDEGLECVPTEESNITMQIMRIKPHQGQHIGEMSFANHTSCRCMSKLD
5 | no binding | binds | binds | 12-9 (ligand) GQNHHEVVKFMDVYQRSYCHPIETLVDIFQEFGVATNTFFKPPCVSVYRCGGCCNDEGLECVPTEESNITMQIMRITVPLSQGPKPVTISFLQHNKCECRPKKD
6 | no binding | binds | binds | 82-13 (ligand) AHYNTEILKFMDVYQRSYCHPIETLVDIFQEFGVATNTFFKPPCVSVYRCGGCCNDEGLECVPTEESNITMQIMRITVPLSQGPKPVTISFANHTSCRCMSKLD
7 | no binding | binds | no binding | 12-14 (ligand) GQNHHEVVKFMDVYQRSYCHPIETLVDIFQEFGVATNTFFKPPCVSVYRCGGCCNDEGLECMNTSTSYLSKTLFEITVPLSQGPKPVTISFANHTSCRCMSKLD
8 | no binding | no binding | no binding | 61-14 (ligand) GQNHHEVVKFMDVYQRSYCHPREVCIDVGKEYPDEIEYIFKPSCVPLMRCGGCCNDEGLECMNTSTSYLSKTLFEITVPLSQGPKPVTISFANHTSCRCMSKLD

Further lines, the binder ahead of its results:

Row | Binder | binding result (VEGFR-2-Fc) | binding result (VEGFR-3-Fc) | binding result (VEGFR-1-Fc)
9 | 53-3 (ligand) AHYNTEILKSIDNEWRKTQCMPIETLVDIFQEYPDEIEYIFKPPCVSVYRCGGCCNSEGLQCVPTEESNITMQIMRIKPHQGQHIGEMSFLQHNKCECRPKKD | binds | binds | binds
10 | 14-9 (ligand) GQNHHEVVKFMDVYQRSYCHPIETLVDIFQEFGVATNTFFKPSCVPLMRCGGCCNDEGLECVPTEESNITMQIMRITVPLSQGPKPVTISFLQHNKCECRPKKD | binds | binds | binds
11 | 22-16 (ligand) AHYNTEILKSIDNEWRKTQCMPREVCIDVGKEFGVATNTFFKPPCVSVYRCGGCCNSEGLQCMNTSTSYLSKTLFEITVPLSQGPKPVTISFANHTSCRCMSKLD | binds | binds | no binding
12 | 12-15 (ligand) GQNHHEVVKFMDVYQRSYCHPIETLVDIFQEFGVATNTFFKPPCVSVYRCGGCCNSEGLQCVPTEESNITMQIMRITVPLSQGPKPVTISFANHTSCRCMSKLD | binds | binds | no binding
13 | 12-3 (ligand) GQNHHEVVKFMDVYQRSYCHPIETLVDIFQEFGVATNTFFKPPCVSVYRCGGCCNSEGLQCVPTEESNITMQIMRIKPHQGQHIGEMSFLQHNKCECRPKKD | binds | no binding | binds
14 | 82-9 (ligand) AHYNTEILKFMDVYQRSYCHPIETLVDIFQEFGVATNTFFKPPCVSVYRCGGCCNDEGLECVPTEESNITMQIMRITVPLSQGPKPVTISFLQHNKCECRPKKD | binds | binds | binds
15 | 84-9 (ligand) AHYNTEILKFMDVYQRSYCHPIETLVDIFQEFGVATNTFFKPSCVPLMRCGGCCNDEGLECVPTEESNITMQIMRITVPLSQGPKPVTISFLQHNKCECRPKKD | binds | binds | binds
16 | 82-11 (ligand) AHYNTEILKFMDVYQRSYCHPIETLVDIFQEFGVATNTFFKPPCVSVYRCGGCCNSEGLQCVPTEESNITMQIMRITVPLSQGPKPVTISFLQHNKCECRPKKD | binds | binds | binds
17 | 12-11 (ligand) GQNHHEVVKFMDVYQRSYCHPIETLVDIFQEFGVATNTFFKPPCVSVYRCGGCCNSEGLQCVPTEESNITMQIMRITVPLSQGPKPVTISFLQHNKCECRPKKD | binds | binds | binds
18 | 84-11 (ligand) AHYNTEILKFMDVYQRSYCHPIETLVDIFQEFGVATNTFFKPSCVPLMRCGGCCNSEGLQCVPTEESNITMQIMRITVPLSQGPKPVTISFLQHNKCECRPKKD | binds | binds | binds
19 | 83-15 (ligand) AHYNTEILKFMDVYQRSYCHPIETLVDIFQEYPDEIEYIFKPPCVSVYRCGGCCNSEGLQCVPTEESNITMQIMRITVPLSQGPKPVTISFANHTSCRCMSKLD | binds | no binding | binds
20 | 82-7 (ligand) AHYNTEILKFMDVYQRSYCHPIETLVDIFQEFGVATNTFFKPPCVSVYRCGGCCNSEGLQCVPTEESNITMQIMRIKPHQGQHIGEMSFANHTSCRCMSKLD | binds | binds | binds
21 | 12-7 (ligand) GQNHHEVVKFMDVYQRSYCHPIETLVDIFQEFGVATNTFFKPPCVSVYRCGGCCNSEGLQCVPTEESNITMQIMRIKPHQGQHIGEMSFANHTSCRCMSKLD | binds | binds | binds
22 | 11-1 (ligand) GQNHHEVVKFMDVYQRSYCHPIETLVDIFQEYPDEIEYIFKPSCVPLMRCGGCCNDEGLECVPTEESNITMQIMRIKPHQGQHIGEMSFLQHNKCECRPKKD | binds | no binding | binds
23 | 12-1 (ligand) GQNHHEVVKFMDVYQRSYCHPIETLVDIFQEFGVATNTFFKPPCVSVYRCGGCCNDEGLECVPTEESNITMQIMRIKPHQGQHIGEMSFLQHNKCECRPKKD | binds | binds | binds
